Results on six molecules are retold here after patent US20240010721A1 (HARBOUR BIOMED SHANGHAI, published 2024).

The labels stand for the following.
B1: PR001353 (antibody, V domains shown)
VH: QVQLVESGGGVVQPGRSLRLSCVASGFTFSSYGMHWVRQAPGKGLEWVSVAWYDGISKDYADSVKGRFTISRDNSMNTLFLQMNSLRAEDTAVYYCAREQARSFDLWGRGTLVTVSS
VL: not shown
notes: fully human IgG1, kappa
B2: PR001362 (antibody, V domains shown)
VH: QVQLVESGGGLVQPGGSLRLSCAASGFTFSTYGMHWVRQAPGKGLEWVAVIWYDGSDEDYADSVKGRFTISRDNSKNTLYLQMNSLRAEDTAVYYCARDQARSFDLWGRGTLVTVSS
VL: DIVMTQSPSTLSASVGDRVTITCRASQSINSWLAWYQQKPGKAPKLLIYKASSLESGVPSRFSGSGSGTEFTLTISSLQPDDFATYYCQQYKSYSPMYTFGQGTKVEIKR
notes: fully human IgG1, kappa
B3: PR001354 (antibody, human IgG1, kappa, V domains shown)
VH: B2 VH with E6Q, L11V, G16R, T31S, V50I, I51M, E58K, N74T, D99E
VL: B2 VL with T10S, S28T, S31N, K92N
notes: fully human IgG1, kappa; also called anti-ROR1 1015M2-C9 hIgG1; PR001354(WT)
B4: PR001357 (antibody, human IgG1, kappa, V domains shown)
VH: B2 VH with E6Q, L11V, G16R, T31S, D57N, E58K, N74T, D99E
VL: B2 VL with V3Q, M4L, S9Y, T10S, S28T, S31N, S93L
notes: fully human IgG1, kappa
B5: Positive control antibody (PR000374) (antibody, human IgG1, kappa, V domains shown)
VH: EVQLVESGGGLVQPGRSLRLSCTASGSDINDYPITWVRQAPGQGLEWIGFINSGGSTWYASWVKGRFTISRDDSKSIAYLQMNSLKTEDTAVYYCARGYSTYYRDFNIWGQGTLVTVSS
VL: DIQMTQSPSSLSASVGDRVTINCQASQSIDSNLAWFQQKPGQPPKLLIYRASNLASGVPDRFSGSGSGTDFTLTISSLEAEDVATYYCLGGVGAVSYRTSFGGGTKVEIKR
B6: PR001419 (antibody, V domains shown)
VH: B1 VH with V23A, S49A, V50I, A51I, D59N, N74M, M76N, L79V, F80Y, R98K
VL: not shown
notes: fully human IgG1, kappa

Residue numbers refer to the chain shown, from its start.

T5 sequence (Q01973 30-406): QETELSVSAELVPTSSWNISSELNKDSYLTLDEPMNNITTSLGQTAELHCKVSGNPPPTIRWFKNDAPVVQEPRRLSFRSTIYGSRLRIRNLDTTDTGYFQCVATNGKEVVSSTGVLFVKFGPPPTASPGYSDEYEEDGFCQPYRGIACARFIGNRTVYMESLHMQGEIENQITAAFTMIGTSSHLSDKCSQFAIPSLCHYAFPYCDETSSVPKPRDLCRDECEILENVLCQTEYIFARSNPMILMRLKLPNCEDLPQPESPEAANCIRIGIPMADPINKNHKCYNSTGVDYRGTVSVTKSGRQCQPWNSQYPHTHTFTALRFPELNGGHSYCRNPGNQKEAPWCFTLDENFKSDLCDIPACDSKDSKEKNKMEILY
T4 sequence (Q01974 34-403): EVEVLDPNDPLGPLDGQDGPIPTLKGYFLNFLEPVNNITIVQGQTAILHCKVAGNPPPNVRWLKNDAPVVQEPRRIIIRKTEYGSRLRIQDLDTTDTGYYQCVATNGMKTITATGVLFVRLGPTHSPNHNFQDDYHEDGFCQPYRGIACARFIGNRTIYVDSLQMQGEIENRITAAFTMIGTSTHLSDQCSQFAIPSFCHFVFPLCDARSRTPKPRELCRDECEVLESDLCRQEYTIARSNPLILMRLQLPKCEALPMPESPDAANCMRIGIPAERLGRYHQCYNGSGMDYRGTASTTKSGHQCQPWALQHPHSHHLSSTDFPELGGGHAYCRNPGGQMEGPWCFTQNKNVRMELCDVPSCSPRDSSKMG
T3 sequence (Q01973 30-403 limits assumed): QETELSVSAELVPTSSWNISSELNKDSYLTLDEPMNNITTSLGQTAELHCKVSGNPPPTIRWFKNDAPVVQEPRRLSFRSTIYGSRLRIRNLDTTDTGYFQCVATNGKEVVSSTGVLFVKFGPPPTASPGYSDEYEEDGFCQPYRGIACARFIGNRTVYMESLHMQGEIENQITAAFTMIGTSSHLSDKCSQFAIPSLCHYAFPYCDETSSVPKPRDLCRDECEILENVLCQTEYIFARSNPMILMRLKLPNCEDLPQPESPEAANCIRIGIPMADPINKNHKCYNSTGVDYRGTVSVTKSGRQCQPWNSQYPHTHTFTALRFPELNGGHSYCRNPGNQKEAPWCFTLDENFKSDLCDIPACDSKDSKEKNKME

The target in one assay is T1, human ROR1 (hROR1) on cells (human, UniProt Q01973 30-937).
T1 construct: whole, on cells; the cell line is named under assay; also called HEK293T-hROR1; 293T-hROR1
T1 sequence (Q01973 30-937): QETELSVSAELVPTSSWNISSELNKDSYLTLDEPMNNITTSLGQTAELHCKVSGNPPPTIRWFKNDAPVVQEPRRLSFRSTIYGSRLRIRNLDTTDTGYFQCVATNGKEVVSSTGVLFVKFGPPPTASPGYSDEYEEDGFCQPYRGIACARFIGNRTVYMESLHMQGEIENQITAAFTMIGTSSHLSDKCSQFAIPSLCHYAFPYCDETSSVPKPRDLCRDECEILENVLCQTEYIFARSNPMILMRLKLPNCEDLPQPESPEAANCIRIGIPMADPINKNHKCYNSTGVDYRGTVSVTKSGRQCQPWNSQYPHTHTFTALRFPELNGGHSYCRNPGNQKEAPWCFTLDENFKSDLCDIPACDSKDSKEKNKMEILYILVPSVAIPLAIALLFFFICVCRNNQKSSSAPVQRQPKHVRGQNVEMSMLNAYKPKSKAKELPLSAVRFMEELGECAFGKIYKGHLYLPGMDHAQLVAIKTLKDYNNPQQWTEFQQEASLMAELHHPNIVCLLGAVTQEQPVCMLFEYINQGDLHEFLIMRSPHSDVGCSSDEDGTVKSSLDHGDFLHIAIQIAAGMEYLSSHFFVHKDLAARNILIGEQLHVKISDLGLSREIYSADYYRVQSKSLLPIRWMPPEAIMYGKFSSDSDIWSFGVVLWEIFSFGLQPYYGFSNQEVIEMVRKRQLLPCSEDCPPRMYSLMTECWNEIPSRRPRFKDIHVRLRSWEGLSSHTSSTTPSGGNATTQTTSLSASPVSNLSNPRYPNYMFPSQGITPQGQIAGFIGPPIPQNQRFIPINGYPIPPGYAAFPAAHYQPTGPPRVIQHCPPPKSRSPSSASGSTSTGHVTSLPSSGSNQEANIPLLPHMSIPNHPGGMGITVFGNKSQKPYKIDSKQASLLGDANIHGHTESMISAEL
Put plainly: FACS, A549 cells. As to the method: (§1) The binding properties were characterized by FACS. The recombinant antibodies obtained above were serially diluted to 9 different concentrations and incubated for 1 h, and then determined for the binding ability with HEK293T-hROR1, CHO-K1-cynoROR1 and A549 cell lines (endogenously expressing ROR1), respectively. The secondary antibody was then incubated for 1 h. The results are shown in FIG. 4-6 and Table 7-2 below.
Regarding B1, the “MAX(MFI)” value amounted to 4330 MFI.
With B2, the “MAX(MFI)” value came out at 3750 MFI.
As for B3, the “MAX(MFI)” value was 4300 MFI.
As for B4, the “MAX(MFI)” value was found to be 4550 MFI.
As to B5, the “MAX(MFI)” value stood at 3850 MFI.

The target in a further assay is T1, human ROR1 (hROR1) on cells. Put plainly: FACS, Panc-1 cells.
For B3, the MFI came out at 6700 MFI.

The target is the same in the next assay. Put plainly: FACS, HEK293T-hROR1 cells. On the procedure:
as §1
Regarding B1, the “fold lower EC50 than reference PR000374” value was 10 fold.
As to B6, the “fold lower EC50 than reference PR000374” value worked out at 10 fold.
In the case of B2, the “fold lower EC50 than reference PR000374” value amounted to 10 fold.
The same measure, in the same setting: under B3 stands 10 fold; under B4, 10 fold.

Another assay has the same target. Put plainly: cell-based or functional assay.
Consider B1, for which the “endocytosis EC50(nM) (a-hFc-MMAF killing, CTG luminescence)” value (shortened to “endocytosis EC50(nM)”) is 0.149 nM.
As for B3, the “endocytosis EC50(nM)” value was 0.143 nM.
On to B4, for which the “endocytosis EC50(nM)” value was determined as 0.137 nM.
On the same count and under the same terms, under B5 stands 0.243 nM.

The next assay shares this target. Put plainly: cell-based or functional assay. This is another data set of the same source.
Regarding B1, the “ADCC Cytotoxicity (%), Donor 1, 1 nM” value turned out to be 30.5%; the “ADCC Cytotoxicity (%), Donor 1, 10 nM” value came to 42.3%; the “ADCC Cytotoxicity (%), Donor 2, 1 nM” value was determined as 14.1%; the “ADCC Cytotoxicity (%), Donor 2, 10 nM” value amounted to 21.5%.
As to B2, the “ADCC Cytotoxicity (%), Donor 1, 1 nM” value came out at 13.9%; the “ADCC Cytotoxicity (%), Donor 1, 10 nM” value came out at 26.9%; the “ADCC Cytotoxicity (%), Donor 2, 1 nM” value was determined as 13.2%; the “ADCC Cytotoxicity (%), Donor 2, 10 nM” value stood at 19.2%.
Consider B3, for which the “ADCC Cytotoxicity (%), Donor 1, 1 nM” value is 33.5%; the “ADCC Cytotoxicity (%), Donor 1, 10 nM” value is 34.7%; the “ADCC Cytotoxicity (%), Donor 2, 1 nM” value worked out at 14.4%; the “ADCC Cytotoxicity (%), Donor 2, 10 nM” value came to 15.9%.
As to B4, the “ADCC Cytotoxicity (%), Donor 1, 1 nM” value was 32.1%; the “ADCC Cytotoxicity (%), Donor 1, 10 nM” value came to 32.1%; the “ADCC Cytotoxicity (%), Donor 2, 1 nM” value was 17.4%; the “ADCC Cytotoxicity (%), Donor 2, 10 nM” value came to 15.8%.
With B5, the “ADCC Cytotoxicity (%), Donor 1, 1 nM” value was determined as 14.4%; the “ADCC Cytotoxicity (%), Donor 1, 10 nM” value worked out at 25.4%; the “ADCC Cytotoxicity (%), Donor 2, 1 nM” value was 11.4%; the “ADCC Cytotoxicity (%), Donor 2, 10 nM” value is 18.2%.

A further assay has the same target. Put plainly: FACS, HEK293T-hROR1 cells. The source holds these as a separate data set.
As for B3, the MFI stood at 42800 MFI.

In a further assay the target is T2, cynomolgus ROR1 (cynoROR1) on CHO-K1 cells (cynomolgus, UniProt A0A2K5WTX7 30-937).
T2 construct: whole, on cells; also called CHO-K1-cynoROR1; CHO-K1-cyROR1
Put plainly: FACS, CHO-K1-cynoROR1 cells. As to the method: as §1
Turning to B1, the “MAX(MFI)” value came to 29000 MFI.
Take B2: the “MAX(MFI)” value was 17700 MFI.
Consider B3, for which the “MAX(MFI)” value is 27000 MFI.
Consider B4, for which the “MAX(MFI)” value came out at 24600 MFI.
Regarding B5, the “MAX(MFI)” value worked out at 31900 MFI.

The next assay concerns the target T3, ROR1 (antigen of the KD determination and of the Octet dissociation measurement) (UniProt Q01973 30-403, limits assumed). Put plainly: Octet, antigen form not stated.
For B3, the Response amounted to 0.609 and the koff was 0.000117 s⁻¹.

Another assay addresses T4, hROR2ECD-his (human, UniProt Q01974 34-403).
T4 construct: extracellular domain; bought, Acrobiosystems R02-H52E5; also called huROR2-his
Put plainly: ELISA, plate coated with hROR2 ECD-his. The procedure, abridged:
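Plates were coated overnight at 4 °C with hROR2 ECD-his at 1 μg/mL and blocked with 5% milk. Recombinant antibodies were bound for 1 h at room temperature and detected with anti-Fc secondary and a 15-min TMB development. […]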
Regarding B1, the binding result is recorded as “no binding”.
Take B6: the binding result was “no binding”.
With B2, the binding result is listed as “no binding”.
On to B3, for which the binding result is reported as “no binding”.
On to B4, for which the binding result is “no binding”.

A further assay has as its target T5, Human ROR1-ECD-his (human, UniProt Q01973 30-406).
T5 construct: extracellular domain; bought, Acrobiosystems RO1-H522y; also called hROR1-ECD-his; hROR1 ECD-his
Put plainly: ELISA, plate coated with hROR1 ECD-his.
In the case of B1, the “ELISA signal (called MFI)” value was 2.54.
As to B6, the “ELISA signal (called MFI)” value was determined as 2.44.
With B2, the “ELISA signal (called MFI)” value came to 2.22.
Consider B3, for which the “ELISA signal (called MFI)” value stood at 2.44.
As to B4, the “ELISA signal (called MFI)” value was 2.5.
B5: the “ELISA signal (called MFI)” value amounted to 2.48.

For a further assay, the target named is T4, hROR2ECD-his. Put plainly: ELISA, plate coated with hROR2 ECD-his. The source holds these as a separate data set.
Consider B1, for which the “ELISA signal (called MFI)” value amounted to 0.031.
In the case of B6, the “ELISA signal (called MFI)” value amounted to 0.025.
On to B2, for which the “ELISA signal (called MFI)” value is 0.032.
Same read-out and setting: under B3 stands 0.027.
As for B4, the “ELISA signal (called MFI)” value amounted to 0.04.
On to B5, for which the “ELISA signal (called MFI)” value was 0.022.

Another assay addresses T3, ROR1 (antigen of the KD determination …). Put plainly: method not stated (conventional procedures).
B1 returned a dissociation constant (Kd) of 2.21 nM, a koff of 0.000927 s⁻¹ and an association rate constant (kon) of 419000 M⁻¹ s⁻¹.
As to B6, the equilibrium dissociation constant (Kd) turned out to be 3.01 nM, the koff worked out at 0.00117 s⁻¹ and the on-rate constant (kon) was 389000 M⁻¹ s⁻¹.
In turn, B2 had an equilibrium dissociation constant (Kd) of 45.4 nM, a dissociation rate constant (koff) of 0.0136 s⁻¹ and a kon of 300000 M⁻¹ s⁻¹.
Consider B3, for which the dissociation constant Kd is 1.13 nM, the off-rate (koff) was determined as 0.000383 s⁻¹ and the on-rate (kon) was 339000 M⁻¹ s⁻¹.
Consider B4, for which the dissociation constant Kd worked out at 0.481 nM, the dissociation rate constant (koff) was determined as 0.000191 s⁻¹ and the on-rate constant (kon) turned out to be 397000 M⁻¹ s⁻¹.
As to B5, the dissociation constant (Kd) is 0.397 nM, the koff amounted to 0.000173 s⁻¹ and the association rate constant (kon) stood at 437000 M⁻¹ s⁻¹.

The target of another assay is T1, human ROR1 (hROR1) on cells. Put plainly: FACS, HEK293T-hROR1 cells; cytometer saturated. As to the method:
as §1
As for B1, the “MAX(MFI)” value was 262000 MFI.
Take B2: the “MAX(MFI)” value is 262000 MFI.
In the case of B3, the “MAX(MFI)” value came to 262000 MFI.
As for B4, the “MAX(MFI)” value is 262000 MFI.
On to B5, for which the “MAX(MFI)” value was 262000 MFI.

A further assay shares this target. Put plainly: flow cytometry (FACS) on HEK293T-hROR1 cells, antibody 0.01-100 nM, median fluorescence intensity. As to the method: as §1
Turning to B6, the concentration for a half-maximal effect (EC50 (read off the curve)) was about 3 nM.
Still for that read-out and setting: the value for B5 was about 9 nM.

Another assay has as its target T2, cynomolgus ROR1 (cynoROR1) on CHO-K1 …. Put plainly: flow cytometry (FACS) on CHO-K1-cynoROR1 cells, antibody 0.01-100 nM, median fluorescence intensity. On the procedure:
as §1
For B2, the concentration for a half-maximal effect (EC50 (read off the curve)) was about 2 nM.
Regarding B5, the “EC50 (read off the curve)” value is about 3 nM.

The target is the same in the next assay. The description is as above. This is another data set of the same source. On the procedure: as §1
As for B6, the concentration giving a half-maximal response (EC50 (read off the curve)) was about 0.7 nM.
As for B5, the 50% effective concentration (EC50 (read off the curve)) is about 5 nM.

In a further assay the target is T1, human ROR1 (hROR1) on cells. Put plainly: flow cytometry (FACS) on A549 cells (endogenous ROR1), antibody 0.01-100 nM, median fluorescence intensity. On the procedure:
as §1
On to B6, for which the “EC50 (read off the curve)” value was about 0.2 nM.
Still for that read-out and setting: under B5 stands about 3 nM.
